According to US20220348609A1 (University of Washington, published 2022):

Columns and labels:
[1] = biological target: T1, human αvβ6 integrin, soluble protein (biotinylated for yeast display; in solution for BLI) (human, UniProt P06756 31-992; P18564 22-707, limits assumed, biotinylated in the yeast display experiments (site not stated)); experiment: BLI titration of purified protein against αvβ6 (FIG. 2f,g); BLI, purified BP1 against αvβ6
T1 construct: also called avb6; alpha(v) beta (6) integrin
Method: (§1) Data was collected on an Octet™ RED96 (Forte Bio) and processed using the instrument's software. His Tagged protein binders were immobilized on Ni-NTA octet sensors. The tips are then dipped into wells containing different concentrations of αᵥβ₆. Association and dissociation steps were recorded for 900 s and 1200 s respectively. An empty sensor with no loaded binding protein was included to discard any non-specific binding of αᵥβ₆ to the octet tip.

[2] = biological target: T2, human αvβ6 integrin on cells (A431 carcinoma cells; K562 cells stably transfected with αvβ6) (human, UniProt P06756 31-1048; P18564 22-788); experiment: cell-based or functional assay
[3] = biological target: T1, human αvβ6 integrin, soluble protein …; experiment: BLI (Octet RED96), His-tagged binder on Ni-NTA sensor, αvβ6 in solution
Method: as §1

[4] = biological target: T3, human αvβ8 integrin on cells (K562 cells stably transfected with αvβ8; HeLa b8 cells in the TMLC assay) (human, UniProt P06756 31-1048; P26012 43-769); experiment: cell surface titration on K562 cells stably transfected with αvβ8; K562 cells with αvβ8; BP1 lacking A39K
T3 construct: whole, on cells; also called avb8; alpha(v) beta (8) integrin

[5] = biological target: T4, αiibβ3 integrin on stably transfected K562 cells (UniProt P08514 32-1039; P05106 27-788, limits assumed); experiment: cell surface binding on stably transfected K562 cells
T4 construct: whole, on cells; also called aiibb3; alpha (iib) beta (3) integrin

[6] = biological target: T5, α8β1 integrin on stably transfected K562 cells (UniProt P53708 39-1063; P05556 21-798, limits assumed); experiment: as above
T5 construct: whole, on cells; also called a8b1; alpha 8 beta 1

[7] = biological target: T6, αvβ5 integrin on stably transfected K562 cells (UniProt P06756 31-1048; P18084 24-799, limits assumed); experiment: as above
T6 construct: whole, on cells; also called avb5; alpha(v) beta (5) integrin

[8] = biological target: T7, αvβ1 integrin on stably transfected K562 cells (UniProt P06756 31-1048; P05556 21-798, limits assumed); experiment: as above
T7 construct: whole, on cells; also called avb1; alpha(v) beta (1) integrin

[9] = biological target: T8, αvβ3 integrin on stably transfected K562 cells (UniProt P06756 31-1048; P05106 27-788, limits assumed); experiment: as above
T8 construct: whole, on cells; also called avb3; alpha(v) beta (3) integrin

[10] = biological target: T9, α5β1 integrin on stably transfected K562 cells (UniProt P08648 42-1049; P05556 21-798, limits assumed); experiment: as above
T9 construct: whole, on cells; also called a5b1; alpha 5 beta 1

[11] = biological target: T2, human αvβ6 integrin on cells (A431 …); experiment: cell surface binding assay on K562 cells stably expressing αvβ6/αvβ8; reference αvβ8
[12] = biological target: T1, human αvβ6 integrin, soluble protein …; experiment: BLI titration of purified protein against αvβ6 (FIG. 2f,g); BLI, purified BP2 against αvβ6
Method: as §1

[13] = biological target: T1, human αvβ6 integrin, soluble protein …; experiment: binding assay not named

T2 sequence (P06756 31-1048, chain 1 of 2): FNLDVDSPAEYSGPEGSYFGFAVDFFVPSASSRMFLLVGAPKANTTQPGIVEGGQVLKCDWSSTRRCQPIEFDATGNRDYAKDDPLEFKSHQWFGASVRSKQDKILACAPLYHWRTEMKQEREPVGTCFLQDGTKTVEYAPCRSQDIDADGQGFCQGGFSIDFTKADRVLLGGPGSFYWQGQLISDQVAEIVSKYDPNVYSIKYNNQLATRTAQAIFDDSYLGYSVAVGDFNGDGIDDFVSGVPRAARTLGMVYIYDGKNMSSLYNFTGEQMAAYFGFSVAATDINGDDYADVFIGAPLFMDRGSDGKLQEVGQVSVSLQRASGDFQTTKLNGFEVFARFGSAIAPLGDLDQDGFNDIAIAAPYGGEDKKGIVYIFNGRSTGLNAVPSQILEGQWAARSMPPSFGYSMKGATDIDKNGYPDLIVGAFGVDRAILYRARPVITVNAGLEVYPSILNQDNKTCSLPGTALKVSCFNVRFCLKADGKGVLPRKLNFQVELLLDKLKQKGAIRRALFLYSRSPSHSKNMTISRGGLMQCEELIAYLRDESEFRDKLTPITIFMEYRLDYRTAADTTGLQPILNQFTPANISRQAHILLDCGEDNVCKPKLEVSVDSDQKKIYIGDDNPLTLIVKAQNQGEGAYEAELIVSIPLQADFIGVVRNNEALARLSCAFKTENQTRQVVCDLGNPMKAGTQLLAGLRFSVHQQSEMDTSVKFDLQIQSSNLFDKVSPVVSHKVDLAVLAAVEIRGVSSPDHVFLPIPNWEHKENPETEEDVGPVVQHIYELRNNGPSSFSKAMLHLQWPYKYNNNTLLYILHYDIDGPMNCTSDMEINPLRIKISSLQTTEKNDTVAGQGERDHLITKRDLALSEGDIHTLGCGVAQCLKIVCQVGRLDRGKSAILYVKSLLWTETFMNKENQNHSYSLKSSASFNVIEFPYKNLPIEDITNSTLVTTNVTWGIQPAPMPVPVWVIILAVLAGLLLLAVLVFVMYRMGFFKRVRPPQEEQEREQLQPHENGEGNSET
T2 sequence (P18564 22-788, chain 2 of 2): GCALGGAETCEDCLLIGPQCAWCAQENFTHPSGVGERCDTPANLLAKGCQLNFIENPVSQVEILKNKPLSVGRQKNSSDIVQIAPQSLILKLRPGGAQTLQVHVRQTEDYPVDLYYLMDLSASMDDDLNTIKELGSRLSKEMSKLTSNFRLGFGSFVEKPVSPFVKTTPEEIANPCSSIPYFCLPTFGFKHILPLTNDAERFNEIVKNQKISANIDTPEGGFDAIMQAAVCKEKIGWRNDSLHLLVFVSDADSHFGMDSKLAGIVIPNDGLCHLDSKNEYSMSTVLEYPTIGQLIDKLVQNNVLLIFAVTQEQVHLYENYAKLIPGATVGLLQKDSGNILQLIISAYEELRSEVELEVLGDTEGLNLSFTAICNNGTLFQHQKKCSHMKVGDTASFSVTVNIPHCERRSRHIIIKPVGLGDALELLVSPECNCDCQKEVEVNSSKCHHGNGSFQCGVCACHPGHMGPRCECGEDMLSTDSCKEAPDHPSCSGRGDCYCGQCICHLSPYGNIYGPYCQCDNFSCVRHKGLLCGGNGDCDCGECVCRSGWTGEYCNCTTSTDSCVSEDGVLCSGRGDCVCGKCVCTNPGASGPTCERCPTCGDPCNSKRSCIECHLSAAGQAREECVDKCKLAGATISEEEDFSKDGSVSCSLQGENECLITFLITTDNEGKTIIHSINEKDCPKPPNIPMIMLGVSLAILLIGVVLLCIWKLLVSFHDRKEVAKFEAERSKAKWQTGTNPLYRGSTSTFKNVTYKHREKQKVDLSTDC
T1 sequence (P06756 31-992 limits assumed, chain 1 of 2): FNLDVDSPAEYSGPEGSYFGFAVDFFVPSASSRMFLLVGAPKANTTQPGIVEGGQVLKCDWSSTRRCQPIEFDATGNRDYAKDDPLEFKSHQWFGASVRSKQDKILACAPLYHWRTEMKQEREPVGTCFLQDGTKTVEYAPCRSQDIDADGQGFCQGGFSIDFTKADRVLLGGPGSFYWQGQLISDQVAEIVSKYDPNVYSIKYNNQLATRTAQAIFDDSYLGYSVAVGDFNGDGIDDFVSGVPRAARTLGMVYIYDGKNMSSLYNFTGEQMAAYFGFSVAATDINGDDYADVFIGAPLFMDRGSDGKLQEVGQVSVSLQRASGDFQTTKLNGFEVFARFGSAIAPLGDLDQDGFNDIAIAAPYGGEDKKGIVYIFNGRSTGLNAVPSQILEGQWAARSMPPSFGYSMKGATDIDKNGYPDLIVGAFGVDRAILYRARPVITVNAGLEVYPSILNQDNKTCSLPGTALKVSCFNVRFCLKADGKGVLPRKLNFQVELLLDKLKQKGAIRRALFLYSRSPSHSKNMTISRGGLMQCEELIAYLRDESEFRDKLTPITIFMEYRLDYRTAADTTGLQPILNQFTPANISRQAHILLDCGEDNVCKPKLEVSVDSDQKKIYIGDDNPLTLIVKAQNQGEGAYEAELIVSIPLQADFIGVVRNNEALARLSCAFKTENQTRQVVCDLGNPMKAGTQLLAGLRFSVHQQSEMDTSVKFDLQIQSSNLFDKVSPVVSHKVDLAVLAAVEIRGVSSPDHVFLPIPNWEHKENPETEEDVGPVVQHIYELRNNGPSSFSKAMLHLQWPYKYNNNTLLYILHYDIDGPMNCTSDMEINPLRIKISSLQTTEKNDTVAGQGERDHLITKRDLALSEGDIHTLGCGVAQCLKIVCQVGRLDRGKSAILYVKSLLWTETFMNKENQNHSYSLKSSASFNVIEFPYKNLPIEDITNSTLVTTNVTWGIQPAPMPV
T1 sequence (P18564 22-707 limits assumed, chain 2 of 2): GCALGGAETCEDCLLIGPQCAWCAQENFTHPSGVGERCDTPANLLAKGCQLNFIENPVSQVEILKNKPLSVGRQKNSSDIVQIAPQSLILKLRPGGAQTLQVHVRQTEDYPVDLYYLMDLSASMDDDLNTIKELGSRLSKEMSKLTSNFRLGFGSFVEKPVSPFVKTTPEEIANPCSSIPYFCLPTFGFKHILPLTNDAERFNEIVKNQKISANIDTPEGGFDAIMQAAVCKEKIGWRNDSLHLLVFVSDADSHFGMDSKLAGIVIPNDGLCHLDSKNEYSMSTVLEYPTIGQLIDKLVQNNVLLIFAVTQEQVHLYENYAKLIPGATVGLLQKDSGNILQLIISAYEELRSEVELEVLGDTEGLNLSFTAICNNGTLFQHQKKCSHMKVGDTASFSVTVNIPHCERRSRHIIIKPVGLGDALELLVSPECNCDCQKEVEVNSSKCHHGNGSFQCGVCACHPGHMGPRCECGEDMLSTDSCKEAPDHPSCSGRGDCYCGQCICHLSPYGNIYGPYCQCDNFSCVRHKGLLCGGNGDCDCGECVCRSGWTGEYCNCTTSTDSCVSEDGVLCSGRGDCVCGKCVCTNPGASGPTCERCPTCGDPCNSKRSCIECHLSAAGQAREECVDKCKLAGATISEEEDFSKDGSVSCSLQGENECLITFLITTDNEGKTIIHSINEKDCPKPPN
T6 sequence (P06756 31-1048 limits assumed, chain 1 of 2): as the sequence (P06756 31-1048, chain 1 of 2) above
T6 sequence (P18084 24-799 limits assumed, chain 2 of 2): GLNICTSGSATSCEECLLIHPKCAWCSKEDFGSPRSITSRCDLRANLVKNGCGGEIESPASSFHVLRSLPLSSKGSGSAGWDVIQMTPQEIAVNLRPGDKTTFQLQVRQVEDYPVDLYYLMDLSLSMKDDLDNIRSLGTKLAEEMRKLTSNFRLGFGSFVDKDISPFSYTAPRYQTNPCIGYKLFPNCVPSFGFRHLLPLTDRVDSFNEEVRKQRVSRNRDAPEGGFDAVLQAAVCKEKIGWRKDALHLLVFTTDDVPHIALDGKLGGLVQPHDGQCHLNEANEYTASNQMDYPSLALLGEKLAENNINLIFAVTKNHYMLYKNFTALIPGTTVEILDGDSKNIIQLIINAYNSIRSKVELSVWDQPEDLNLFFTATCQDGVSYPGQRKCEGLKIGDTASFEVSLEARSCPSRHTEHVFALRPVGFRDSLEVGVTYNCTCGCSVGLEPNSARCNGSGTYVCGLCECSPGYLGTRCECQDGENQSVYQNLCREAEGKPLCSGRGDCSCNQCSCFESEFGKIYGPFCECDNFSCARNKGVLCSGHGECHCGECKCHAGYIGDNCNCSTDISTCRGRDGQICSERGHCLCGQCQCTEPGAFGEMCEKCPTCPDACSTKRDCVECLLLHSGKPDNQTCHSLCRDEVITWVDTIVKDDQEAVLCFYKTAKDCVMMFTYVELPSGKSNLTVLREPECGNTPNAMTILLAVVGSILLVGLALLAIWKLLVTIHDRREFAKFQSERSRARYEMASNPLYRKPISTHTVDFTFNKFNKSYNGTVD
T8 sequence (P06756 31-1048 limits assumed, chain 1 of 2): as the sequence (P06756 31-1048, chain 1 of 2) above
T8 sequence (P05106 27-788 limits assumed, chain 2 of 2): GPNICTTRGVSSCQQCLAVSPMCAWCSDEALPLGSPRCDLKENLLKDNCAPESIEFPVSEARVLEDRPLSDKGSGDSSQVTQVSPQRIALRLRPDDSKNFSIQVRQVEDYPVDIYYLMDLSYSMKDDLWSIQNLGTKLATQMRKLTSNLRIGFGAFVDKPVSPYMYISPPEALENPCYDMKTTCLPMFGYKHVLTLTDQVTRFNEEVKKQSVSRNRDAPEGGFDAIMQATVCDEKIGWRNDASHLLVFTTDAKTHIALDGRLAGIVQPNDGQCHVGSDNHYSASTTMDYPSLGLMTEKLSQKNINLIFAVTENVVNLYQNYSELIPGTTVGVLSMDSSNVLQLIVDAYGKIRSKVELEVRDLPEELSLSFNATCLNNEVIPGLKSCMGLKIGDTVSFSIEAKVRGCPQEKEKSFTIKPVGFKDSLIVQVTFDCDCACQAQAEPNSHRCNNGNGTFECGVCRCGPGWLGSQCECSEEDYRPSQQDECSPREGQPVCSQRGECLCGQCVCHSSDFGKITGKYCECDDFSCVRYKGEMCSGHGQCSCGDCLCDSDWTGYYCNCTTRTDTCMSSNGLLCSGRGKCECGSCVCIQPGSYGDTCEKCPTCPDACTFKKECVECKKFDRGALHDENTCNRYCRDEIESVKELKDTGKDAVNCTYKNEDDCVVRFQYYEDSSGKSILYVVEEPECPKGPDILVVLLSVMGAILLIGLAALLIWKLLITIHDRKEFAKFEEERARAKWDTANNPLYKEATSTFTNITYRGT

Kd [1]	IC50 of the block of αvβ6 mediated TGF-β activation, TMLC luciferase reporter co-culture assay [2]	Kd [3]	Kd [4]	binding result [5]	binding result [6]	binding result [7]	binding result [8]	binding result [9]	binding result [10]	fold specificity towards αvβ6 over αvβ8 [11]	Kd [12]	binding result [13]	Binder
< 1000 pM	199 pM	334 pM	~7300 pM	no binding (tested: up to 200 nM)	no binding (tested: up to 200 nM)	no binding (tested: up to 200 nM)	no binding (tested: up to 200 nM)	no binding (tested: up to 200 nM)	no binding (tested: up to 200 nM)	–	–	–	BP1 (av6_3_E13T) (designed binder, also called BPI; not shown: C-terminal His tag (pET29b, NdeI/XhoI)) MAVVRFVFRGDLATLMLRAVKDHLKKEGPHWNITSTNNGAELVVRGIHESDAKRIAKWVEKRFPGVHTETQQD
–	151 pM	414 pM	–	no binding (tested: up to 200 nM)	no binding (tested: up to 200 nM)	no binding (tested: up to 200 nM)	no binding (tested: up to 200 nM)	no binding (tested: up to 200 nM)	no binding (tested: up to 200 nM)	> 5000 fold	< 1000 pM	–	BP2 (av6_3_A39KG64R) (designed binder, not shown: C-terminal His tag (pET29b, NdeI/XhoI)) MAVVRFVFRGDLAELMLRAVKDHLKKEGPHWNITSTNNGKELVVRGIHESDAKRIAKWVEKRFPRVHTETQQD
–	–	–	–	–	–	–	–	–	–	–	–	no binding	BP2_disulf with knockout mutation of the RGD to KGE (designed binder, if the listing entry starts with Met they are 11 and 13; also called KGE knockout of BP2_disulf) MTKCVVRFVFKGELAELMLRAVKDHLKKEGPHWNITSTNNGKELVVRGIHESDAKRIAKWVEKRFPRVHTETQCD
